Usually Kd stands for the free concentration of one partner at which half of the binding sites on the other are occupied at equilibrium, for simple one-to-one binding. Low readings indicate higher affinity, high ones lower affinity. Usually stoichiometry N stands for a count of units in the complex or per binding partner.

These results are taken from paper PMC4124035 (Nature structural & molecular biology, 2014).

Like-named read-outs stand apart in the source and are kept apart here.

The target in experiment [1] is RPRD2 CTD interaction domain (CID), residues 15-161 (human) (UniProt Q5VT52). Briefly: ITC. A general note: ITC needs no label: the signal is the heat of the interaction.
For experiment [2], the target named is RPRD1A CTD interaction domain (CID), residues 2-137 (human) (UniProt Q96P16). Put plainly: ITC.
In experiment [3] the target is RPRD1B CTD interaction domain (CID), residues 2-135 (human) (UniProt Q9NQG5). Put plainly: ITC.
In experiment [4] the target is RPRD1B coiled-coil domain (solution experiments) (human) (UniProt Q9NQG5). Briefly: AUC.
Experiment [5] deals with RPAP2. Put plainly: Phosphatase assay with pNPP substrate. Type of experiment: biochemical, human. The conditions noted are these: unpublished data.
Experiment [6] has as its system RPAP2. Put plainly: In vitro phosphatase ELISA on biotinylated CTD peptides. Type of experiment: biochemical, human. The conditions noted are these: Supplementary Fig. 4d. On the technique in general: In an ELISA, binding on a coated surface is turned into a signal by an enzyme label.
Another experiment addresses T1, RPRD2 CID (Homo sapiens, UniProt Q5VT52).
T1 sequence (Q5VT52 15-161): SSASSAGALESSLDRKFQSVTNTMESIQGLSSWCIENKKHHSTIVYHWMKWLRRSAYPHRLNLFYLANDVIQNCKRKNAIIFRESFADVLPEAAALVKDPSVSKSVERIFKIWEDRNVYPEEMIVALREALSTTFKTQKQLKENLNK
Put plainly: ITC binding of CTD peptides to RPRD2 CID. The conditions noted are these: ratio of Kd values of Table 1.

For a further experiment, the target named is T2, RPRD1A CID (Homo sapiens, UniProt Q96P16).
T2 sequence (Q96P16 2-137): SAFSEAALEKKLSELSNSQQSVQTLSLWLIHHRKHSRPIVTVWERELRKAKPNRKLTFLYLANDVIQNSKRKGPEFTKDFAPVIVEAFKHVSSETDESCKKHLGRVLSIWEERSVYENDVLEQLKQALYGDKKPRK
Briefly: ITC binding of CTD peptides to RPRD1A CID. The conditions noted are these: ratio of Kd values of Table 1.

For a further experiment, the target named is T3, RPRD1B CID (Homo sapiens, UniProt Q9NQG5).
T3 sequence (Q9NQG5 2-135): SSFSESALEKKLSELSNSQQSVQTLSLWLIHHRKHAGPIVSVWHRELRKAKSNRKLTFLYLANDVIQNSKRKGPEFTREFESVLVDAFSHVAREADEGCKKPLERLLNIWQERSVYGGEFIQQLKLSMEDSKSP
Put plainly: ITC binding of CTD peptides to RPRD1B CID. The conditions noted are these: ratio of Kd values of Table 1.

Experiment [7] addresses RPRD1B coiled-coil domain (human) (UniProt Q9NQG5). Put plainly: AUC.
Experiment [8] has the same target. Put plainly: AUC. The source holds these as a separate data set.
In the next experiment the test system is RPAP2 (1-334). Put plainly: In vitro DiFMUP phosphatase assay. It counts as biochemical, human. The conditions noted are these: 10 μM DiFMUP, 50 mM 3,3-dimethylglutaric acid pH 6.5, 37°C, fluorescence every 20 min for 2 hours.
In another experiment the target is T4, RPRD1A CID R106A (human, UniProt Q96P16 2-137, R106A).
T4 sequence: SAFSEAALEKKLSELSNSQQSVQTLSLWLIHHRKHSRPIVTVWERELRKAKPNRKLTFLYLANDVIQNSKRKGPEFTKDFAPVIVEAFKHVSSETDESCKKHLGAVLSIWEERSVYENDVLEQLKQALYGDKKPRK
Briefly: ITC.

As to S5P CTD peptide, the Kd in experiment [1], in [2] and in [3] was greater than 1000 µM each time. Turning to “RPRD1B coiled-coil domain (solution experiments) (from UniProt Q9NQG5 137-326) (domain or fragment)”, the percent dimer in [4] was determined as 89.6%.

For S2,7P CTD peptide, the fold increase of affinity compared to S2P alone in [2] was 1.6 fold; in experiment [3], 2.6 fold. For `O=[N+]([O-])c1ccc(OP(=O)(O)O)cc1` [pNPP, para-nitrophenylphosphate], the “phosphatase activity of RPAP2 on the substrate” value in the experiment on RPAP2 [5] is recorded as “No measurable phosphatase activity”. As to S2,5P CTD peptide, the Kd in experiment [1], in [2] and in experiment [3] was greater than 1000 µM throughout. As to S5,7P CTD peptide, the Kd in experiment [1], in experiment [2] and in experiment [3] was greater than 1000 µM each time. As to `[O]=[V]([O-])([O-])[O-]` [vanadate], the “inhibition of RPRD1A-dependent S5 dephosphorylation by RPAP2” value with RPAP2 [6] is “inhibited”.

In the case of `C[C@@H](O)[C@H](NC(=O)[C@@H]1CCCN1C(=O)[C@H](COP(=O)(O)O)NC(=O)[C@H](Cc1ccc(O)cc1)NC(=O)[C@H](COP(=O)(O)O)NC(=O)[C@@H]1CCCN1C(=O)[C@H](CO)NC(=O)[C@@H](NC(=O)[C@@H]1CCCN1C(=O)[C@H](COP(=O)(O)O)NC(=O)[C@H](Cc1ccc(O)cc1)NC(=O)[C@H](CO)NC(=O)[C@@H]1CCCN1C(=O)[C@@H](N)CO)[C@@H](C)O)C(=O)N[C@@H](CO)C(=O)N1CCC[C@H]1C(=O)N[C@@H](COP(=O)(O)O)C(=O)N[C@@H](Cc1ccc(O)cc1)C(=O)N[C@@H](CO)C(=O)O` [S2,7P CTD], the “fold increase of RPRD2 CID affinity compared to S2P CTD” value on RPRD2 CID is on record as “remained unchanged”. Also, at RPRD1A CID, the “fold increase of RPRD1A CID affinity compared to S2P CTD” value was 1.6 fold. Moreover, the “fold increase of RPRD1B CID affinity compared to S2P CTD” value on RPRD1B CID is recorded as 2.6 fold.

As for “RPRD1B coiled-coil domain (from UniProt Q9NQG5 137-326) (domain or fragment)”, the stoichiometry N in [7] and in [8] was 2 each time. In the case of `Cc1cc(=O)oc2c(F)c(OP(=O)(O)O)c(F)cc12` [DiFMUP, 6,8-difluoro-4-methylumbelliferyl phosphate], in the experiment with RPAP2 (1-334), the “dephosphorylation of the substrate by RPAP2 (1-334)” value is “dephosphorylated DiFMUP in a time- and dose-dependent manner”.

On to SPSYSPTSPSYSPTSPSYS [19-mer S2P CTD peptide], for which the “fold reduction of binding against wild type” value with RPRD1A CID R106A is roughly 27 fold.
